Data set [1] relates to HeLa Kyoto. The experiment in a line: solubility in G1/S (NP-40 vs SDS abundance) (log2 ratio); higher = more soluble. The note with it: cell cycle stage: G1/S.
The subject of data set [2] is HeLa Kyoto. In words: melting temperature (median over replicates), in situ; higher = more thermally stable.
Data set [3] has as its system HeLa Kyoto. The experiment in a line: solubility change mitosis vs G1/S (difference of NP-40 vs SDS log2 ratios) (log2 ratio difference); higher = more soluble in mitosis.
Data set [4] deals with HeLa Kyoto. In words: thermal stability score vs G1/S (z-score of summed log2 fold changes over temperatures); higher = more thermally stable than in G1/S.
Setting [5] is: cell cycle stage: early G1 (4.5 h after nocodazole release).
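Wherever melting temperature (median over replicates), in situ is given: HeLa Kyoto cells synchronized by double thymidine or nocodazole block, proteins quantified by TMT10plex mass spectrometry, three independent biological replicates.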
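Wherever solubility change mitosis vs G1/S (difference of NP-40 vs SDS log2 ratios) is given: synchronized HeLa Kyoto cells (double thymidine block for G1/S, nocodazole release for mitosis), protein amounts in NP-40 versus SDS lysates quantified by mass spectrometry, three biological replicates.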
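Wherever solubility in G1/S (NP-40 vs SDS abundance) is given: HeLa Kyoto cells arrested at G1/S by double thymidine block, proteins quantified by TMT10plex mass spectrometry in mild NP-40 versus SDS extracts, three biological replicates.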
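Wherever thermal stability score vs G1/S (z-score of summed log2 fold changes over temperatures) is given: synchronized HeLa Kyoto cells, proteins quantified by TMT10plex mass spectrometry, three biological replicates, mitosis taken 0.5 h after nocodazole release, G1/S directly after double thymidine block.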

On to “MASDEGKLFVGGLSFDTNEQSLEQVFSKYGQISEVVVVKDRETQRSRGFGFVTFENIDDAKDAMMAMNGKSVDGRQIRVDQAGKSSDNRSRGYRGGSAGGRGFFRGGRGRGRGFSRGGGDRGYGGNRFESRSGGYGGSRDYYSSRSQSGGYSDRSSGGSYRDSYDSYATHNE [CIRBP]”, for which the “solubility in G1/S (log2)” value in the data set with HeLa Kyoto [1] was -0.000215. Besides, the melting temperature in the data set with HeLa Kyoto [2] (cell cycle stage: G1/S) was found to be 52.8 °C; in the data set on HeLa Kyoto [2] (cell cycle stage: mitosis) it was 53 °C. For the same sequence, the “solubility change mitosis (log2)” value with HeLa Kyoto [3] worked out at 0.112. The thermal stability score with HeLa Kyoto [4] (setting [5]) is -0.492; in the data set on HeLa Kyoto [4] (cell cycle stage: mitosis), -2.78.

Consider “MWGSDRLAGAGGGGAAVTVAFTNARDCFLHLPRRLVAQLHLLQNQAIEVVWSHQPAFLSWVEGRHFSDQGENVAEINRQVGQKLGLSNGGQVFLKPCSHVVSCQQVEVEPLSADDWEILELHAVSLEQHLLDQIRIVFPKAIFPVWVDQQTYIFIQIVALIPAASYGRLETDTKLLIQPKTRRAKENTFSKADAEYKKLHSYGRDQKGMMKELQTKQLQSNTVGITESNENESEIPVDSSSVASLWTMIGSIFSFQSEKKQETSWGLTEINAFKNMQSKVVPLDNIFRVCKSQPPSIYNASATSVFHKHCAIHVFPWDQEYFDVEPSFTVTYGKLVKLLSPKQQQSKTKQNVLSPEKEKQMSEPLDQKKIRSDHNEEDEKACVLQVVWNGLEELNNAIKYTKNVEVLHLGKVWIPDDLRKRLNIEMHAVVRITPVEVTPKIPRSLKLQPRENLPKDISEEDIKTVFYSWLQQSTTTMLPLVISEEEFIKLETKDGLKEFSLSIVHSWEKEKDKNIFLLSPNLLQKTTIQVLLDPMVKEENSEEIDFILPFLKLSSLGGVNSLGVSSLEHITHSLLGRPLSRQLMSLVAGLRNGALLLTGGKGSGKSTLAKAICKEAFDKLDAHVERVDCKALRGKRLENIQKTLEVAFSEAVWMQPSVVLLDDLDLIAGLPAVPEHEHSPDAVQSQRLAHALNDMIKEFISMGSLVALIATSQSQQSLHPLLVSAQGVHIFQCVQHIQPPNQEQRCEILCNVIKNKLDCDINKFTDLDLQHVAKETGGFVARDFTVLVDRAIHSRLSRQSISTREKLVLTTLDFQKALRGFLPASLRSVNLHKPRDLGWDKIGGLHEVRQILMDTIQLPAKYPELFANLPIRQRTGILLYGPPGTGKTLLAGVIARESRMNFISVKGPELLSKYIGASEQAVRDIFIRAQAAKPCILFFDEFESIAPRRGHDNTGVTDRVVNQLLTQLDGVEGLQGVYVLAATSRPDLIDPALLRPGRLDKCVYCPPPDQVSRLEILNVLSDSLPLADDVDLQHVASVTDSFTGADLKALLYNAQLEALHGMLLSSGLQDGSSSSDSDLSLSSMVFLNHSSGSDDSAGDGECGLDQSLVSLEMSEILPDESKFNMYRLYFGSSYESELGNGTSSDLSSQCLSAPSSMTQDLPGVPGKDQLFSQPPVLRTASQEGCQELTQEQRDQLRADISIIKGRYRSQSGEDESMNQPGPIKTRLAISQSHLMTALGHTRPSISEDDWKNFAELYESFQNPKRRKNQSGTMFRPGQKVTLA [PEX1]”, for which, in the data set on HeLa Kyoto [1], the “solubility in G1/S (log2)” value is -0.083. In addition, the results for the melting temperature with HeLa Kyoto [2] (cell cycle stage: G1/S) and in the data set on HeLa Kyoto [2] (cell cycle stage: mitosis) were 51.2 °C and 50.6 °C, respectively. Besides, the “solubility change mitosis (log2)” value in the data set with HeLa Kyoto [3] was -0.0568. For the same sequence, the thermal stability score was -0.296 with HeLa Kyoto [4] (setting [5]) and -0.803 with HeLa Kyoto [4] (cell cycle stage: mitosis).

Consider “MEPPSCIQDEPFPHPLEPEPGVSAQPGPGKPSDKRFRLWYVGGSCLDHRTTLPMLPWLMAEIRRRSQKPEAGGCGAPAAREVILVLSAPFLRCVPAPGAGASGGTSPSATQPNPAVFIFEHKAQHISRFIHNSHDLTYFAYLIKAQPDDPESQMACHVFRATDPSQVPDVISSIRQLSKAAMKEDAKPSKDNEDAFYNSQKFEVLYCGKVTVTHKKAPSSLIDDCMEKFSLHEQQRLKIQGEQRGPDPGEDLADLEVVVPGSPGDCLPEEADGTDTHLGLPAGASQPALTSSRVCFPERILEDSGFDEQQEFRSRCSSVTGVQRRVHEGSQKSQPRRRHASAPSHVQPSDSEKNRTMLFQVGRFEINLISPDTKSVVLEKNFKDISSCSQGIKHVDHFGFICRESPEPGLSQYICYVFQCASESLVDEVMLTLKQAFSTAAALQSAKTQIKLCEACPMHSLHKLCERIEGLYPPRAKLVIQRHLSSLTDNEQADIFERVQKMKPVSDQEENELVILHLRQLCEAKQKTHVHIGEGPSTISNSTIPENATSSGRFKLDILKNKAKRSLTSSLENIFSRGANRMRGRLGSVDSFERSNSLASEKDYSPGDSPPGTPPASPPSSAWQTFPEEDSDSPQFRRRAHTFSHPPSSTKRKLNLQDGRAQGVRSPLLRQSSSEQCSNLSSVRRMYKESNSSSSLPSLHTSFSAPSFTAPSFLKSFYQNSGRLSPQYENEIRQDTASESSDGEGRKRTSSTCSNESLSVGGTSVTPRRISWRQRIFLRVASPMNKSPSAMQQQDGLDRNELLPLSPLSPTMEEEPLVVFLSGEDDPEKIEERKKSKELRSLWRKAIHQQILLLRMEKENQKLEASRDELQSRKVKLDYEEVGACQKEVLITWDKKLLNCRAKIRCDMEDIHTLLKEGVPKSRRGEIWQFLALQYRLRHRLPNKQQPPDISYKELLKQLTAQQHAILVDLGRTFPTHPYFSVQLGPGQLSLFNLLKAYSLLDKEVGYCQGISFVAGVLLLHMSEEQAFEMLKFLMYDLGFRKQYRPDMMSLQIQMYQLSRLLHDYHRDLYNHLEENEISPSLYAAPWFLTLFASQFSLGFVARVFDIIFLQGTEVIFKVALSLLSSQETLIMECESFENIVEFLKNTLPDMNTSEMEKIITQVFEMDISKQLHAYEVEYHVLQDELQESSYSCEDSETLEKLERANSQLKRQNMDLLEKLQVAHTKIQALESNLENLLTRETKMKSLIRTLEQEKMAYQKTVEQLRKLLPADALVNCDLLLRDLNCNPNNKAKIGNKP [TBC1D4]”, for which the “solubility in G1/S (log2)” value in the data set with HeLa Kyoto [1] was -0.0729. Besides, the melting temperature with HeLa Kyoto [2] (cell cycle stage: G1/S) was determined as 51.1 °C; in the data set with HeLa Kyoto [2] (cell cycle stage: mitosis) it was 50.5 °C. In the data set on HeLa Kyoto [3], the “solubility change mitosis (log2)” value was -0.0775. The thermal stability score is -0.833 in the data set on HeLa Kyoto [4] (setting [5]) and -0.739 with HeLa Kyoto [4] (cell cycle stage: mitosis).

As for “MAAAAAQGGGGGEPRRTEGVGPGVPGEVEMVKGQPFDVGPRYTQLQYIGEGAYGMVSSAYDHVRKTRVAIKKISPFEHQTYCQRTLREIQILLRFRHENVIGIRDILRASTLEAMRDVYIVQDLMETDLYKLLKSQQLSNDHICYFLYQILRGLKYIHSANVLHRDLKPSNLLINTTCDLKICDFGLARIADPEHDHTGFLTEYVATRWYRAPEIMLNSKGYTKSIDIWSVGCILAEMLSNRPIFPGKHYLDQLNHILGILGSPSQEDLNCIINMKARNYLQSLPSKTKVAWAKLFPKSDSKALDLLDRMLTFNPNKRITVEEALAHPYLEQYYDPTDEPVAEEPFTFAMELDDLPKERLKELIFQETARFQPGVLEAP [MAPK3]”, the “solubility in G1/S (log2)” value in the data set with HeLa Kyoto [1] came to 0.391. For the same sequence, the melting temperature in the data set on HeLa Kyoto [2] (cell cycle stage: G1/S) is 51.3 °C; in the data set on HeLa Kyoto [2] (cell cycle stage: mitosis), 50.2 °C. Further, in the data set on HeLa Kyoto [3], the “solubility change mitosis (log2)” value was -0.228. Also, the thermal stability score in the data set with HeLa Kyoto [4] (setting [5]) is -0.246; with HeLa Kyoto [4] (cell cycle stage: mitosis), -0.247.

As for “MDEEYDVIVLGTGLTECILSGIMSVNGKKVLHMDRNPYYGGESSSITPLEELYKRFQLLEGPPESMGRGRDWNVDLIPKFLMANGQLVKMLLYTEVTRYLDFKVVEGSFVYKGGKIYKVPSTETEALASNLMGMFEKRRFRKFLVFVANFDENDPKTFEGVDPQTTSMRDVYRKFDLGQDVIDFTGHALALYRTDDYLDQPCLETVNRIKLYSESLARYGKSPYLYPLYGLGELPQGFARLSAIYGGTYMLNKPVDDIIMENGKVVGVKSEGEVARCKQLICDPSYIPDRVRKAGQVIRIICILSHPIKNTNDANSCQIIIPQNQVNRKSDIYVCMISYAHNVAAQGKYIAIASTTVETTDPEKEVEPALELLEPIDQKFVAISDLYEPIDDGCESQVFCSCSYDATTHFETTCNDIKDIYKRMAGTAFDFENMKRKQNDVFGEAEQ [GDI1]”, the “solubility in G1/S (log2)” value in the data set on HeLa Kyoto [1] amounted to 0.0264. In addition, the values for the melting temperature in the data set on HeLa Kyoto [2] (cell cycle stage: G1/S) and in the data set on HeLa Kyoto [2] (cell cycle stage: mitosis) were 54.2 °C and 53.8 °C, respectively. The “solubility change mitosis (log2)” value in the data set with HeLa Kyoto [3] is -0.152. The thermal stability score was -0.651 in the data set on HeLa Kyoto [4] (setting [5]) and -1.41 in the data set with HeLa Kyoto [4] (cell cycle stage: mitosis).

Source of the values: the supplement of paper PMC5998384.
